This note sets out measurements from patent US20240294569A1, “MODULATORS OF SORTILIN ACTIVITY” (Insusense ApS, priority 2021, published 2024).

Peptide text beside a SMILES is read from it.

The first assay deals with 6his-Sortilin (human) (UniProt Q99523). In words: SPA, displacement of [3H]-neurotensin from 6his-Sortilin.
Conditions: not given
As to “(2S)-5,5-Dimethyl-2-((3S)-3-methyl-2-((S)-2-((S)-pyrrolidine-2-carboxamido)propanamido)pentanamido)hexanoic acid (peptide)”, the IC50 was 70 nM.
On the same count and under the same terms, then “(S)-2-((2S,3S)-2-((S)-3-(4-Hydroxyphenyl)-2-((S)-pyrrolidine-3-carboxamido)propanamido)-3-methylpentanamido)-5,5-dimethylhexanoic acid (peptide)”, with 150 nM; and “(S)-2-((2S,3S)-2-((S)-3-(4-Hydroxyphenyl)-2-((S)-morpholine-2-carboxamido)propanamido)-3-methylpentanamido)-5,5-dimethylhexanoic acid (peptide)”, with 70 nM.
Still for that read-out and setting: then “(S)-2-((2S,3S)-2-((S)-3-(4-Hydroxyphenyl)-2-((R)-morpholine-3-carboxamido)propanamido)-3-methylpentanamido)-5,5-dimethylhexanoic acid (peptide)”, with 100 nM.
The compound “(S)-2-((S)-2-((S)-3-(4-Hydroxyphenyl)-2-((S)-pyrrolidine-2-carboxamido)propanamido)-3-(1-methyl-1H-imidazol-4-yl)propanamido)-5,5-dimethylhexanoic acid (peptide)” gave an IC50 of 370 nM.
Same read-out and setting: then “(S)-2-((S)-2-((S)-5-Amino-5-oxo-2-((S)-pyrrolidine-2-carboxamido)pentanamido)-3-(thiazol-4-yl)propanamido)-5,5-dimethylhexanoic acid (peptide)”, with 60 nM.
Still for that read-out and setting: then “(S)-2-((S)-2-((S)-3-(4-Hydroxyphenyl)-2-((S)-pyrrolidine-2-carboxamido)propanamido)-3-(pyridin-4-yl)propanamido)-5,5-dimethylhexanoic acid (peptide)”, with 200 nM.
Still for that read-out and setting: then “(S)-2-((2S,3S)-2-((S)-3-(4-Hydroxyphenyl)-2-((S)-pyrrolidine-2-carboxamido)propanamido)-3-methylpentanamido)-5,5-dimethylhexanoic acid (peptide)”, with 90 nM; and “(S)-2-((S)-2-((S)-4-Amino-4-oxo-2-((S)-pyrrolidine-2-carboxamido)butanamido)-3-(thiazol-4-yl)propanamido)-5,5-dimethylhexanoic acid (peptide)”, with 90 nM; and “(S)-2-((2S,3S)-2-((S)-3-(4-Hydroxyphenyl)-2-((R)-morpholine-2-carboxamido)propanamido)-3-methylpentanamido)-5,5-dimethylhexanoic acid (peptide)”, with 90 nM.
The compound “(S)-2-((2S,3S)-2-((S)-3-(4-Hydroxyphenyl)-2-((R)-pyrrolidine-3-carboxamido)propanamido)-3-methylpentanamido)-5,5-dimethylhexanoic acid (peptide)” yielded a 50% inhibitory concentration (IC50) of 180 nM.
In the case of “(S)-2-((S)-2-((S)-3-(4-Hydroxyphenyl)-2-((S)-pyrrolidine-2-carboxamido)propanamido)-3-(thiazol-4-yl)propanamido)-5,5-dimethylhexanoic acid (peptide)”, the IC50 amounted to 70 nM.
With “(S)-2-((S)-2-((S)-3-(4-Hydroxyphenyl)-2-((S)-pyrrolidine-2-carboxamido)propanamido)-3-morpholinopropanamido)-5,5-dimethylhexanoic acid (peptide)”, the half-inhibitory concentration (IC50) stood at 160 nM.

The next assay deals with T1, hSortilin (Homo sapiens, UniProt Q99523).
T1 sequence (Q99523 78-831): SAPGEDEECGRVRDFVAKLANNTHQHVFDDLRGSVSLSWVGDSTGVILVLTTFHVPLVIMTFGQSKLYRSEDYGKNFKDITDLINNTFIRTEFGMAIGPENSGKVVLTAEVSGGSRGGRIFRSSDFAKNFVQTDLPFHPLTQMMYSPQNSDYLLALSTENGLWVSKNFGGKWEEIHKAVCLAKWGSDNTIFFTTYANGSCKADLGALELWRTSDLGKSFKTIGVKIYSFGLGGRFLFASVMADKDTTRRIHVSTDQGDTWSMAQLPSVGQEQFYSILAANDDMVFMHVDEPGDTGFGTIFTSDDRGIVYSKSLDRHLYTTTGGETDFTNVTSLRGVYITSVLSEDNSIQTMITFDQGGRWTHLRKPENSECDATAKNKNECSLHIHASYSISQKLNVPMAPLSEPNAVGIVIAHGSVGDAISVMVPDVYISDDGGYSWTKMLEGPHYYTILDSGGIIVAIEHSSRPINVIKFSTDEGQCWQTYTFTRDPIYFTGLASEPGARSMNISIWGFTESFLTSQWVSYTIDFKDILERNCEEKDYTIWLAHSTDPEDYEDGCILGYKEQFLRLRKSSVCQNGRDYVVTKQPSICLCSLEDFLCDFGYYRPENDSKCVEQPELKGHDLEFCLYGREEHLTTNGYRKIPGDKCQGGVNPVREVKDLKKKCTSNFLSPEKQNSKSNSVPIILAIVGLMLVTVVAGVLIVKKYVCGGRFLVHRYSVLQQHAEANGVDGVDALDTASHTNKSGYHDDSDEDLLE
In words: Neurotensin scintillation proximity assay (displacement of [3H]-neurotensin binding). Conditions: displacement of 5 nM [3H]-neurotensin from 150 nM 6his-Sortilin; average of at least 2 determinations; read-out: IC50 [3H]Neurotensin SPA. The protocol:
The data of exemplified compounds of the invention tested in a Neurotensin (NTS) scintillation proximity assay (SPA). NTS, which is a 13 amino acid neuropeptide, is a sortilin ligand. The IC50 is a measure of the amount of the compound required to inhibit the binding of NTS to sortilin by 50%.
Compound affinity was determined by measuring the displacement of [^3H]-neurotensin binding to hSortilin in SPA format. Total volume of 40 μl in 50 mM HEPES pH 7.4 assay buffer containing 100 mM NaCl, 2.0 mM CaCl2, 0.1% BSA and 0.1% Tween-20. Compound pre-incubation for 30 minutes at room temperature with 150 nM of 6his-Sortilin before 5 nM [3H]-Neurotensin and Ni chelate imaging beads (Perkin Elmer) were added, after 6 hours the plate was read on a ViewLux with 360 s exposure time. Dose-response evaluation of compounds was performed with 8 concentrations of drugs (covering 3 decades). IC50 values were calculated by nonlinear regression using the sigmoid concentration-response (variable slope) using CDD Vault software. All values reported are average of at least 2 determinations.
Turning to `CC(C)(C)CC[C@H](NC(=O)[C@H](Cc1ccsc1)NC(=O)[C@H](Cc1ccc(O)cc1)NC(=O)[C@@H]1CCCN1)C(=O)O` [Example 9, (S)-2-((S)-2-((S)-3-(4-Hydroxyphenyl)-2-((S)-pyrrolidine-2-carboxamido)propan amido)-3-(thiophen-3-yl)propanamido)-5,5-dimethylhexanoic acid] (HELM PEPTIDE1{P.Y.[O=C([C@H](Cc1ccsc1)N[*:1])[*:2]].[CC(C)(C)CC[C@H](N[*:1])C(=O)O]}$$$$V2.0), the IC50 came out at 140 nM.
On to `CC[C@H](C)[C@H](NC(=O)[C@H](Cc1ccc(O)cc1)NC(=O)[C@H]1CNCCO1)C(=O)N[C@@H](CCC(C)(C)C)C(=O)O` [Example 30, (S)-2-((2S,3S)-2-((S)-3-(4-Hydroxyphenyl)-2-((R)-morpholine-2-carboxamido)propan amido)-3-methylpentanamido)-5,5-dimethylhexanoic acid], for which the IC50 turned out to be 90 nM.
Same read-out and setting: then `CC[C@H](C)[C@H](NC(=O)[C@H](Cc1ccc(O)cc1)NC(=O)[C@H]1CCNC1)C(=O)N[C@@H](CCC(C)(C)C)C(=O)O` [Example 20, (S)-2-((2S,3S)-2-((S)-3-(4-Hydroxyphenyl)-2-((S)-pyrrolidine-3-carboxamido)propan amido)-3-methylpentanamido)-5,5-dimethylhexanoic acid], with 150 nM; and `CC(C)(C)CC[C@H](NC(=O)[C@H](CN1CCOCC1)NC(=O)[C@H](Cc1ccc(O)cc1)NC(=O)[C@@H]1CCCN1)C(=O)O` [Example 13, (S)-2-((S)-2-((S)-3-(4-Hydroxyphenyl)-2-((S)-pyrrolidine-2-carboxamido)propan amido)-3-morpholinopropan-amido)-5,5-dimethylhexanoic acid] (HELM PEPTIDE1{P.Y.[O=C([C@H](CN1CCOCC1)N[*:1])[*:2]].[CC(C)(C)CC[C@H](N[*:1])C(=O)O]}$$$$V2.0), with 160 nM.
The same measure, in the same setting: then `CC(C)(C)CC[C@H](NC(=O)[C@H](Cc1c[nH]c2ccccc12)NC(=O)[C@H](Cc1ccc(O)cc1)NC(=O)[C@@H]1CCCN1)C(=O)O` [Example 14, (S)-2-((S)-2-((S)-3-(4-Hydroxyphenyl)-2-((S)-pyrrolidine-2-carboxamido)propan amido)-3-(1H-indol-3-yl)propanamido)-5,5-dimethylhexanoic acid] (HELM PEPTIDE1{P.Y.W.[CC(C)(C)CC[C@H](N[*:1])C(=O)O]}$$$$V2.0), with 60 nM; and `CC(C)(C)CC[C@H](NC(=O)[C@H](Cc1cscn1)NC(=O)[C@H](CCC(N)=O)NC(=O)[C@@H]1CCCN1)C(=O)O` [Example 11, (S)-2-((S)-2-((S)-5-Amino-5-oxo-2-((S)-pyrrolidine-2-carboxamido)pentan amido)-3-(thiazol-4-yl)propanamido)-5,5-dimethylhexanoic acid] (HELM PEPTIDE1{P.Q.[O=C([C@H](Cc1cscn1)N[*:1])[*:2]].[CC(C)(C)CC[C@H](N[*:1])C(=O)O]}$$$$V2.0), with 60 nM; and `CC(C)(C)CC[C@H](NC(=O)[C@H](Cc1cscn1)NC(=O)[C@H](Cc1ccc(O)cc1)NC(=O)[C@@H]1CCCN1)C(=O)O` [Example 12, (S)-2-((S)-2-((S)-3-(4-Hydroxyphenyl)-2-((S)-pyrrolidine-2-carboxamido)propan amido)-3-(thiazol-4-yl)propanamido)-5,5-dimethylhexanoic acid] (HELM PEPTIDE1{P.Y.[O=C([C@H](Cc1cscn1)N[*:1])[*:2]].[CC(C)(C)CC[C@H](N[*:1])C(=O)O]}$$$$V2.0), with 70 nM.
The same measure, in the same setting: then `CC(C)(C)CC[C@H](NC(=O)[C@H](Cc1cscn1)NC(=O)[C@H](CC(N)=O)NC(=O)[C@@H]1CCCN1)C(=O)O` [Example 10, (S)-2-((S)-2-((S)-4-Amino-4-oxo-2-((S)-pyrrolidine-2-carboxamido)butan-amido)-3-(thiazol-4-yl)propanamido)-5,5-dimethylhexanoic acid] (HELM PEPTIDE1{P.N.[O=C([C@H](Cc1cscn1)N[*:1])[*:2]].[CC(C)(C)CC[C@H](N[*:1])C(=O)O]}$$$$V2.0), with 90 nM.
In the case of `Cn1cncc1C[C@H](NC(=O)[C@H](Cc1ccc(O)cc1)NC(=O)[C@@H]1CCCN1)C(=O)N[C@@H](CCC(C)(C)C)C(=O)O` [Example 32, (S)-2-((S)-2-((S)-3-(4-Hydroxyphenyl)-2-((S)-pyrrolidine-2-carboxamido)propan amido)-3-(1-methyl-1H-imidazol-5-yl)propanamido)-5,5-dimethylhexanoic acid.di-formic acid] (HELM PEPTIDE1{P.Y.[Cn1cncc1C[C@H](N[*:1])C(=O)[*:2]].[CC(C)(C)CC[C@H](N[*:1])C(=O)O]}$$$$V2.0), the IC50 is 100 nM.
The same measure, in the same setting: under `CC[C@H](C)[C@H](NC(=O)[C@H](Cc1ccc(O)cc1)NC(C)=O)C(=O)N[C@@H](CCC(F)(F)F)C(=O)O` [Example 3, (S)-2-((2S,3S)-2-((S)-2-Acetamido-3-(4-hydroxyphenyl)propanamido)-3-methylpentanamido)-5,5,5-trifluoropentanoic acid] stands 1110 nM.
